Source: the supplement of paper PMC9112550, “Optimization of the antimicrobial peptide Bac7 by deep mutational scanning” (BMC Biology, 2022)

Tested on: Escherichia coli TOP10
Assay: shrunken log2 fold change of peptide-encoding DNA abundance (4.5 h post-induction vs induction); higher = less antimicrobial activity (less host growth inhibition)
Conditions: time post-induction: 4.5 h; library: site-saturation at positions 5, 18, 19, 20
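Note: peptides expressed intracellularly from a pBAD plasmid library in pooled LB shake-flask culture, induced with 0.3% L-arabinose, DNA abundance read by NGS, three biological replicates, DESeq2 with apeglm shrinkage.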

Sequence	shrunken log2 fold change
RRIRRRPPRLPRPRPRPMQWPRP	0.103
RRIRRRPPRLPRPRPRPMRLPRP	0.667
RRIRRRPPRLPRPRPRPMSHPRP	0.142
RRIRRRPPRLPRPRPRPMSQPRP	0.247
RRIRRRPPRLPRPRPRPMTKPRP	0.0629
RRIRRRPPRLPRPRPRPMWEPRP	0.00178
RRIRRRPPRLPRPRPRPMWLPRP	0.105
RRIRRRPPRLPRPRPRPMWQPRP	0.381
RRIRRRPPRLPRPRPRPMWTPRP	-0.132
RRIRRRPPRLPRPRPRPNAEPRP	0.0193
RRIRRRPPRLPRPRPRPNAKPRP	0.0165
RRIRRRPPRLPRPRPRPNAVPRP	0.23
RRIRRRPPRLPRPRPRPNCDPRP	0.186
RRIRRRPPRLPRPRPRPNCYPRP	-0.0134
RRIRRRPPRLPRPRPRPNDHPRP	0.0277
RRIRRRPPRLPRPRPRPNDRPRP	0.205
RRIRRRPPRLPRPRPRPNEPPRP	0.317
RRIRRRPPRLPRPRPRPNFIPRP	-0.481
RRIRRRPPRLPRPRPRPNFLPRP	0.0376
RRIRRRPPRLPRPRPRPNGIPRP	-0.0555
RRIRRRPPRLPRPRPRPNGTPRP	0.219
RRIRRRPPRLPRPRPRPNLDPRP	-0.152
RRIRRRPPRLPRPRPRPNLFPRP	0.177
RRIRRRPPRLPRPRPRPNLHPRP	-0.288
RRIRRRPPRLPRPRPRPNLQPRP	-0.07

Sequence	shrunken log2 fold change
RRIRRRPPRLPRPRPRPNLVPRP	-0.023
RRIRRRPPRLPRPRPRPNMSPRP	2.14
RRIRRRPPRLPRPRPRPNNAPRP	-0.18
RRIRRRPPRLPRPRPRPNPKPRP	0.172
RRIRRRPPRLPRPRPRPNQCPRP	-0.0957
RRIRRRPPRLPRPRPRPNSDPRP	-0.17
RRIRRRPPRLPRPRPRPNSQPRP	-0.154
RRIRRRPPRLPRPRPRPNSSPRP	0.105
RRIRRRPPRLPRPRPRPNTLPRP	-0.283
RRIRRRPPRLPRPRPRPNVEPRP	0.318
RRIRRRPPRLPRPRPRPNVMPRP	-0.149
RRIRRRPPRLPRPRPRPNWGPRP	0.412
RRIRRRPPRLPRPRPRPNYIPRP	-0.237
RRIRRRPPRLPRPRPRPNYQPRP	-0.263
RRIRRRPPRLPRPRPRPNYVPRP	-0.338
RRIRRRPPRLPRPRPRPPAWPRP	0.919
RRIRRRPPRLPRPRPRPPCMPRP	0.404
RRIRRRPPRLPRPRPRPPCVPRP	1.02
RRIRRRPPRLPRPRPRPPDCPRP	0.326
RRIRRRPPRLPRPRPRPPDEPRP	0.726
RRIRRRPPRLPRPRPRPPGTPRP	0.705
RRIRRRPPRLPRPRPRPPHCPRP	1.08
RRIRRRPPRLPRPRPRPPKAPRP	-0.00754
RRIRRRPPRLPRPRPRPPKRPRP	0.686
RRIRRRPPRLPRPRPRPPLIPRP	0.511

Sequence	shrunken log2 fold change
RRIRRRPPRLPRPRPRPPNFPRP	0.0782
RRIRRRPPRLPRPRPRPPPKPRP	0.995
RRIRRRPPRLPRPRPRPPPWPRP	0.868
RRIRRRPPRLPRPRPRPPQIPRP	0.908
RRIRRRPPRLPRPRPRPPQTPRP	0.828
RRIRRRPPRLPRPRPRPPSDPRP	0.79
RRIRRRPPRLPRPRPRPPSWPRP	0.295
RRIRRRPPRLPRPRPRPPVCPRP	0.592
RRIRRRPPRLPRPRPRPPVFPRP	0.55
RRIRRRPPRLPRPRPRPPVTPRP	0.538
RRIRRRPPRLPRPRPRPPWGPRP	0.0337
RRIRRRPPRLPRPRPRPPWLPRP	0.634
RRIRRRPPRLPRPRPRPPWNPRP	0.474
RRIRRRPPRLPRPRPRPPYDPRP	0.213
RRIRRRPPRLPRPRPRPPYGPRP	0.0935
RRIRRRPPRLPRPRPRPPYTPRP	0.00247
RRIRRRPPRLPRPRPRPQATPRP	0.233
RRIRRRPPRLPRPRPRPQCKPRP	-0.268
RRIRRRPPRLPRPRPRPQCLPRP	0.066
RRIRRRPPRLPRPRPRPQCRPRP	0.123
RRIRRRPPRLPRPRPRPQEEPRP	0.0332
RRIRRRPPRLPRPRPRPQEFPRP	0.041
RRIRRRPPRLPRPRPRPQFEPRP	0.16
RRIRRRPPRLPRPRPRPQFPPRP	0.133
RRIRRRPPRLPRPRPRPQGDPRP	0.0133

Sequence	shrunken log2 fold change
RRIRRRPPRLPRPRPRPQGVPRP	-0.159
RRIRRRPPRLPRPRPRPQHHPRP	-0.0809
RRIRRRPPRLPRPRPRPQIGPRP	0.164
RRIRRRPPRLPRPRPRPQIRPRP	0.178
RRIRRRPPRLPRPRPRPQIWPRP	0.279
RRIRRRPPRLPRPRPRPQKPPRP	-0.138
RRIRRRPPRLPRPRPRPQMMPRP	-0.232
RRIRRRPPRLPRPRPRPQMWPRP	-0.00576
RRIRRRPPRLPRPRPRPQNKPRP	-0.172
RRIRRRPPRLPRPRPRPQPFPRP	-0.0201
RRIRRRPPRLPRPRPRPQPLPRP	0.509
RRIRRRPPRLPRPRPRPQRAPRP	0.226
RRIRRRPPRLPRPRPRPQSIPRP	-0.0196
RRIRRRPPRLPRPRPRPQSKPRP	-0.0754
RRIRRRPPRLPRPRPRPQSRPRP	0.00841
RRIRRRPPRLPRPRPRPQTAPRP	-0.11
RRIRRRPPRLPRPRPRPQTKPRP	0.161
RRIRRRPPRLPRPRPRPQTQPRP	0.506
RRIRRRPPRLPRPRPRPQTSPRP	0.24
RRIRRRPPRLPRPRPRPQVCPRP	-0.175
RRIRRRPPRLPRPRPRPQVNPRP	-0.0663
RRIRRRPPRLPRPRPRPQWAPRP	0.0248
RRIRRRPPRLPRPRPRPQWCPRP	0.00425
RRIRRRPPRLPRPRPRPRAPPRP	1.02
RRIRRRPPRLPRPRPRPRCGPRP	0.474

Sequence	shrunken log2 fold change
RRIRRRPPRLPRPRPRPRCPPRP	0.605
RRIRRRPPRLPRPRPRPRDEPRP	0.48
RRIRRRPPRLPRPRPRPRDNPRP	0.15
RRIRRRPPRLPRPRPRPRDPPRP	0.74
RRIRRRPPRLPRPRPRPRDTPRP	0.6
RRIRRRPPRLPRPRPRPRDYPRP	-0.116
RRIRRRPPRLPRPRPRPRFLPRP	0.15
RRIRRRPPRLPRPRPRPRFNPRP	-0.189
RRIRRRPPRLPRPRPRPRFTPRP	0.264
RRIRRRPPRLPRPRPRPRFWPRP	0.652
RRIRRRPPRLPRPRPRPRFYPRP	-0.237
RRIRRRPPRLPRPRPRPRGDPRP	0.393
RRIRRRPPRLPRPRPRPRGQPRP	1.11
RRIRRRPPRLPRPRPRPRHSPRP	0.226
RRIRRRPPRLPRPRPRPRHVPRP	0.158
RRIRRRPPRLPRPRPRPRLHPRP	0.435
RRIRRRPPRLPRPRPRPRLLPRP	0.474
RRIRRRPPRLPRPRPRPRLQPRP	0.349
RRIRRRPPRLPRPRPRPRLWPRP	0.273
RRIRRRPPRLPRPRPRPRLYPRP	-0.00733
RRIRRRPPRLPRPRPRPRMFPRP	0.556
RRIRRRPPRLPRPRPRPRMTPRP	0.295
RRIRRRPPRLPRPRPRPRPYPRP	1.17
RRIRRRPPRLPRPRPRPRRRPRP	0.778
RRIRRRPPRLPRPRPRPRTAPRP	0.458

Sequence	shrunken log2 fold change
RRIRRRPPRLPRPRPRPRVNPRP	0.398
RRIRRRPPRLPRPRPRPRVQPRP	0.445
RRIRRRPPRLPRPRPRPRVSPRP	0.335
RRIRRRPPRLPRPRPRPRWGPRP	0.533
RRIRRRPPRLPRPRPRPRYPPRP	0.252
RRIRRRPPRLPRPRPRPRYTPRP	-0.186
RRIRRRPPRLPRPRPRPRYWPRP	0.088
RRIRRRPPRLPRPRPRPSAVPRP	0.368
RRIRRRPPRLPRPRPRPSCWPRP	0.285
RRIRRRPPRLPRPRPRPSDKPRP	-0.492
RRIRRRPPRLPRPRPRPSDSPRP	0.141
RRIRRRPPRLPRPRPRPSEGPRP	0.163
RRIRRRPPRLPRPRPRPSHIPRP	-0.0708
RRIRRRPPRLPRPRPRPSHNPRP	-0.379
RRIRRRPPRLPRPRPRPSIEPRP	-0.232
RRIRRRPPRLPRPRPRPSITPRP	-0.225
RRIRRRPPRLPRPRPRPSLVPRP	0.243
RRIRRRPPRLPRPRPRPSMGPRP	-0.0183
RRIRRRPPRLPRPRPRPSNHPRP	-0.396
RRIRRRPPRLPRPRPRPSNTPRP	-0.172
RRIRRRPPRLPRPRPRPSPMPRP	1.54
RRIRRRPPRLPRPRPRPSQPPRP	0.104
RRIRRRPPRLPRPRPRPSRCPRP	-0.0309
RRIRRRPPRLPRPRPRPSSEPRP	-0.322
RRIRRRPPRLPRPRPRPSSGPRP	0.0144
